Measured values reported in US20170014494.

System: flag-tagged SUMO1
Sequence (chain, as listed by the source): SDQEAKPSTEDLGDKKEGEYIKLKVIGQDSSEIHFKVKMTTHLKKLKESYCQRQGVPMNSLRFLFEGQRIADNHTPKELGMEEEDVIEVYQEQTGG

SERCA2a wild type (WT), expressed from a plasmid in HEK293 cells
Vmax of Ca2+-dependent ATPase activity of WT SERCA2a with co-expression of SUMO1: 98.58 ± 1.83 nmol/min/mg
